The target of the experiment is T1, YFP-DAT, Q01959.
T1 chain: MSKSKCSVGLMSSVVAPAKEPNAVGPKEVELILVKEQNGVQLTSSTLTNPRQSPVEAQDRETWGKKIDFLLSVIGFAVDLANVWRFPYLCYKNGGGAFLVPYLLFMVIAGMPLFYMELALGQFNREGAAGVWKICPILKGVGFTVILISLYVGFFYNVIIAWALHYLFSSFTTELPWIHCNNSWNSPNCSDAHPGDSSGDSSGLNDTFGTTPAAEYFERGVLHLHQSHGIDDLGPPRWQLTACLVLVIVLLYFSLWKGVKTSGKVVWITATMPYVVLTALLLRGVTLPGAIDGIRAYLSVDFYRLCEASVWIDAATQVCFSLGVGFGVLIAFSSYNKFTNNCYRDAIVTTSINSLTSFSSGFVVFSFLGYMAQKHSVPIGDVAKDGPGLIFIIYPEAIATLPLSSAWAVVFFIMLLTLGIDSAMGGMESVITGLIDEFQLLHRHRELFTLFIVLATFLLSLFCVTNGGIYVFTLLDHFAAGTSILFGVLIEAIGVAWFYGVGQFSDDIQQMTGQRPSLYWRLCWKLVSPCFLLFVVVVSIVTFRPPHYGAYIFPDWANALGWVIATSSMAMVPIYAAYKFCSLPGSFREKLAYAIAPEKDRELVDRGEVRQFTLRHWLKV
The experiment in a line: FRET or BRET; CFP- and YFP-labelled proteins co-expressed in HEK293 cells; three-filter method, 63x oil immersion objective; FRET efficiency, n = 20-30 per group. Conditions: remark: other sources report otherwise. For orientation: Bioluminescence resonance energy transfer reports proximity on the nanometre scale.

B1: CFP-Flot1, O75955 1-427 (natural protein)
chain: MFFTCGPNEAMVVSGFCRSPPVMVAGGRVFVLPCIQQIQRISLNTLTLNVKSEKVYTRHGVPISVTGIAQVKIQGQNKEMLAAACQMFLGKTEAEIAHIALETLEGHQRAIMAHMTVEEIYKDRQKFSEQVFKVASSDLVNMGISVVSYTLKDIHDDQDYLHSLGKARTAQVQKDARIGEAEAKRDAGIREAKAKQEKVSAQYLSEIEMAKAQRDYELKKAAYDIEVNTRRAQADLAYQLQVAKTKQQIEEQRVQVQVVERAQQVAVQEQEIARREKELEARVRKPAEAERYKLERLAEAEKSQLIMQAEAEAASVRMRGEAEAFAIGARARAEAEQMAKKAEAFQLYQEAAQLDMLLEKLPQVAEEISGPLTSANKITLVSSGSGTMGAAKVTGEVLDILTRLPESVERLTGVSISQVNHKPLRTA
In turn, B1 displayed an FRET efficiency of 7.62.
